Values of other authors, collected in patent US20190010499.

Test system: IL-6
Conditions: binding constant used for modeling; measurement method not stated; nucleic acid type not stated; cited from earlier work

| Substance | Kd |
| --- | --- |
| Anti-IL-6 aptamer #1 (SL1025) | 233 pM |
| Anti-IL-6 aptamer #2 (SL1032) | 1600 pM |
